Experimental data taken from patent US20210284734A1 (SYMPHOGEN A S, published 2021).

T1: human PD-1 ECD-Fc chimeric construct 4 (human, UniProt Q15116 21-170)
T1 construct: not shown: human IgG1 Fc, residues P101-K330
T1 chain: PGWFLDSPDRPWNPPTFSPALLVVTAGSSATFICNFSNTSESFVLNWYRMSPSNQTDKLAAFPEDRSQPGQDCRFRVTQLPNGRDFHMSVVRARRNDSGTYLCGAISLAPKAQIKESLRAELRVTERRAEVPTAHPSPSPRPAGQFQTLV

T2: human PD-1 ECD-Fc chimeric construct 15 (human, UniProt Q15116 21-170)
T2 construct: not shown: human IgG1 Fc, residues P101-K330
T2 chain: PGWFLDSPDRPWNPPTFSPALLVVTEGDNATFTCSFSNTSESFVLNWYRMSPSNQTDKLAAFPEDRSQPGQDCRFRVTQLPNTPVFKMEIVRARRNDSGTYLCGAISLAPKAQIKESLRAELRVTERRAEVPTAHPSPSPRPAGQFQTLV

T3: human PD-1 ECD-Fc chimeric construct 10 (human, UniProt Q15116 21-170)
T3 construct: printed run together as P83IE84R; not shown: human IgG1 Fc, residues P101-K330
T3 chain: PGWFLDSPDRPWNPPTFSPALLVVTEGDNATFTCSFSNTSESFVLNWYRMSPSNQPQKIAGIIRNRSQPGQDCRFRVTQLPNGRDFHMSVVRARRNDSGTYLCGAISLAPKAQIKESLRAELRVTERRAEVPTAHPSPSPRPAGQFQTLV

T4: human PD-1 ECD-Fc chimeric construct 22 (human, UniProt Q15116 21-170)
T4 construct: not shown: human IgG1 Fc, residues P101-K330
T4 chain: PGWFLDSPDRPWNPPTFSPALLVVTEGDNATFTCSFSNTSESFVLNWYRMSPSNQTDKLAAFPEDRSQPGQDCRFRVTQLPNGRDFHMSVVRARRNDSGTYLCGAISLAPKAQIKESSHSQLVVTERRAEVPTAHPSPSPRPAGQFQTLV

T5: human PD-1 ECD-Fc chimeric construct 17 (human, UniProt Q15116 21-170)
T5 construct: not shown: human IgG1 Fc, residues P101-K330
T5 chain: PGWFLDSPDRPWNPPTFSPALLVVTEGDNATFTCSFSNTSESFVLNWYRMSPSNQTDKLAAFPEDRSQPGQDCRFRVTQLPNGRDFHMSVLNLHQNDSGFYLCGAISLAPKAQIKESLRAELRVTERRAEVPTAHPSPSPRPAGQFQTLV

T6: human PD-1 ECD-Fc chimeric construct 19 (human, UniProt Q15116 21-170)
T6 construct: not shown: human IgG1 Fc, residues P101-K330
T6 chain: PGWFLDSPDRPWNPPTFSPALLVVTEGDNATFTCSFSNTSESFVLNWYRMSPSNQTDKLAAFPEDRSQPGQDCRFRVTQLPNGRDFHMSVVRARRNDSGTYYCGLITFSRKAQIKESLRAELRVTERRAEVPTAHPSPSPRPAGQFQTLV


How the values were obtained:
Assay in all cases: SPR, Fab on captured PD-1-Fc
human PD-1 ECD-Fc E84A = biological target: T7, human PD-1 ECD-Fc E84A (human, UniProt Q15116 21-170)
T7 construct: not shown: human IgG1 Fc, residues P101-K330

human PD-1 ECD-Fc Q91A = biological target: T8, human PD-1 ECD-Fc Q91A (human, UniProt Q15116 21-170)
T8 construct: not shown: human IgG1 Fc, residues P101-K330
T8 sequence (Q15116 21-170 Q91A): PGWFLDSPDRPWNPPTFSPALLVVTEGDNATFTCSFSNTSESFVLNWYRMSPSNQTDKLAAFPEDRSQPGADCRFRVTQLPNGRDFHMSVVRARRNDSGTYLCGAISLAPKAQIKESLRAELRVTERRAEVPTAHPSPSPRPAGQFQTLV

human PD-1 ECD-Fc Y68A = biological target: T9, human PD-1 ECD-Fc Y68A (human, UniProt Q15116 21-170)
T9 construct: not shown: human IgG1 Fc, residues P101-K330
T9 sequence (Q15116 21-170 Y68A): as the sequence (Q15116 21-170 Q91A) above, with Y48A, A71Q counted along it

human PD-1 ECD-Fc S157R = biological target: T10, human PD-1 ECD-Fc S157R (human, UniProt Q15116 21-170)
T10 construct: also called Rat mutation S157R; not shown: human IgG1 Fc, residues P101-K330
T10 sequence (Q15116 21-170 S157R): as the sequence (Q15116 21-170 Q91A) above, with A71Q, S137R counted along it

human PD-1 ECD-Fc N66A = biological target: T11, human PD-1 ECD-Fc N66A (human, UniProt Q15116 21-170)
T11 construct: not shown: human IgG1 Fc, residues P101-K330
T11 sequence (Q15116 21-170 N66A): as the sequence (Q15116 21-170 Q91A) above, with N46A, A71Q counted along it

human PD-1 ECD-Fc A149G = biological target: T12, human PD-1 ECD-Fc A149G (human, UniProt Q15116 21-170)
T12 construct: not shown: human IgG1 Fc, residues P101-K330
T12 sequence (Q15116 21-170 A149G): as the sequence (Q15116 21-170 Q91A) above, with A71Q, A129G counted along it

human PD-1 ECD-Fc D92A = biological target: T13, human PD-1 ECD-Fc D92A (human, UniProt Q15116 21-170)
T13 construct: not shown: human IgG1 Fc, residues P101-K330
T13 sequence (Q15116 21-170 D92A): as the sequence (Q15116 21-170 Q91A) above, with A71Q, D72A counted along it

human PD-1 ECD-Fc G47A = biological target: T14, human PD-1 ECD-Fc G47A (human, UniProt Q15116 21-170)
T14 construct: not shown: human IgG1 Fc, residues P101-K330

human PD-1 ECD-Fc Q133A = biological target: T15, human PD-1 ECD-Fc Q133A (human, UniProt Q15116 21-170)
T15 construct: not shown: human IgG1 Fc, residues P101-K330
T15 sequence (Q15116 21-170 Q133A): as the sequence (Q15116 21-170 Q91A) above, with A71Q, Q113A counted along it

human PD-1 ECD-Fc P101A = biological target: T16, human PD-1 ECD-Fc P101A (human, UniProt Q15116 21-170)
T16 construct: not shown: human IgG1 Fc, residues P101-K330

human PD-1 ECD-Fc S71A = biological target: T17, human PD-1 ECD-Fc S71A (human, UniProt Q15116 21-170)
T17 construct: not shown: human IgG1 Fc, residues P101-K330
T17 sequence (Q15116 21-170 S71A): as the sequence (Q15116 21-170 Q91A) above, with S51A, A71Q counted along it

human PD-1 ECD-Fc P31A = biological target: T18, human PD-1 ECD-Fc P31A (human, UniProt Q15116 21-170)
T18 construct: not shown: human IgG1 Fc, residues P101-K330
T18 sequence (Q15116 21-170 P31A): as the sequence (Q15116 21-170 Q91A) above, with P11A, A71Q counted along it

human PD-1 ECD-Fc S73A = biological target: T19, human PD-1 ECD-Fc S73A (human, UniProt Q15116 21-170)
T19 construct: not shown: human IgG1 Fc, residues P101-K330
T19 sequence (Q15116 21-170 S73A): as the sequence (Q15116 21-170 Q91A) above, with S53A, A71Q counted along it

human PD-1 ECD-Fc Q88A = biological target: T20, human PD-1 ECD-Fc Q88A (human, UniProt Q15116 21-170)
T20 construct: not shown: human IgG1 Fc, residues P101-K330
T20 sequence (Q15116 21-170 Q88A): as the sequence (Q15116 21-170 Q91A) above, with Q68A, A71Q counted along it

[1] = biological target: T1, human PD-1 ECD-Fc chimeric construct 4
Procedure: (§1) The human PD-1 Fc fusion constructs were harvested after 9 days and supernatants were tested for binding affinity to anti-PD-1 Fabs by Surface Plasmon Resonance (SPR). Culture supernatants containing PD-1 fusion proteins were immobilized onto an G-a-hu-IgG Fc SensEye® (Ssens BV, The Netherlands) for 15 minutes using a Continuous Flow Microspotter (CFM, Wasatch Microfluidics, Salt Lake City, US). After spotting, the SensEye® was positioned in an IBIS MX96 biosensor and captured proteins were fixed to the surface using FixIT kit (Ssens BV, The Netherlands). […] Fab association was performed for 15 minutes and antigen dissociation was performed for 30 minutes. The recorded binding responses were fitted to a simple Langmuir 1:1 binding model with Scrubber 2 software for calculation of the on-rate (kₒₙ or ka), off-rate (koff or kd) and affinity (KD) constants.
(§2) The change in binding affinity of Fab antibodies binding to the mutated PD-1 constructs compared to wild-type were expressed as the ratio of KD mutant/KD wild-type (normalized binding affinity).

[2] = biological target: T2, human PD-1 ECD-Fc chimeric construct 15
Procedure: as §1, §2

[3] = biological target: T3, human PD-1 ECD-Fc chimeric construct 10
Procedure: as §1, §2

[4] = biological target: T4, human PD-1 ECD-Fc chimeric construct 22
Procedure: as §1, §2

[5] = biological target: T21, human PD-1 ECD-Fc chimeric construct 1 (human, UniProt Q15116 21-170)
T21 construct: not shown: human IgG1 Fc, residues P101-K330

[6] = biological target: T5, human PD-1 ECD-Fc chimeric construct 17
Procedure: as §1, §2

[7] = biological target: T6, human PD-1 ECD-Fc chimeric construct 19
Procedure: as §1, §2

| KD mutant/KD wild-type (human PD-1 ECD-Fc E84A) [ratio] | KD mutant/KD wild-type (human PD-1 ECD-Fc Q91A) [ratio] | KD mutant/KD wild-type (human PD-1 ECD-Fc Y68A) [ratio] | KD mutant/KD wild-type (human PD-1 ECD-Fc S157R) [ratio] | KD mutant/KD wild-type (human PD-1 ECD-Fc N66A) [ratio] | KD mutant/KD wild-type (human PD-1 ECD-Fc A149G) [ratio] | KD mutant/KD wild-type (human PD-1 ECD-Fc D92A) [ratio] | KD mutant/KD wild-type (human PD-1 ECD-Fc G47A) [ratio] | KD mutant/KD wild-type (human PD-1 ECD-Fc Q133A) [ratio] | KD mutant/KD wild-type (human PD-1 ECD-Fc P101A) [ratio] | KD mutant/KD wild-type (human PD-1 ECD-Fc S71A) [ratio] | KD mutant/KD wild-type (human PD-1 ECD-Fc P31A) [ratio] | KD mutant/KD wild-type (human PD-1 ECD-Fc S73A) [ratio] | KD mutant/KD wild-type (human PD-1 ECD-Fc Q88A) [ratio] | KD mutant/KD wild-type [1] [ratio] | KD mutant/KD wild-type [2] [ratio] | KD mutant/KD wild-type [3] [ratio] | KD mutant/KD wild-type [4] [ratio] | KD mutant/KD wild-type [5] [ratio] | KD mutant/KD wild-type [6] [ratio] | Binder | also measured |
| --- | --- | --- | --- | --- | --- | --- | --- | --- | --- | --- | --- | --- | --- | --- | --- | --- | --- | --- | --- | --- | --- |
| 1.3 | 0.8 | 2.2 | 1.6 | 2.2 | 0.8 | 1.2 | 1.6 | 0.7 | 1.1 | 0.9 | 1.1 | 0.9 | 1.4 | 0.3 | 1.3 | 33.7 | 1.9 | 1.2 | 0.2 | 12819.17149 Fab (Fab, V domains shown, monomeric Fab fragment) VH: EVQLLESGGGLVQPGGSLRLSCAASGFTFTRYDMVWVRQAPGKGLEWVAGIGDSNKMTRYAPAVKGRATISRDNSKNTLYLQMNSLRAEDTAVYYCAKGSCIACWDEAGRIDAWGQGTLVTVSS VL: SYELTQDPAVSVALGQTVRITCSGGGSYDGSSYYGWYQQKPGQAPVTVIYNNNNRPSDIPDRFSGSSSGNTASLTITGAQAEDEADYYCGSYDRPETNSDYVGMFGSGTKVTVL | KD mutant/KD wild-type [7]: 175 ratio |
| 1 | 1 | 0.8 | 1 | 1 | 1 | 0.9 | 0.6 | 0.9 | 0.9 | 0.9 | 1.1 | 0.9 | 0.9 | 0.6 | 0.9 | 1 | 1 | 0.4 | 0.7 | 13112.15380 Fab (Fab, V domains shown) VH: EVQLLESGGGLVQPGGSLRLSCAASGFTFSSYNMFWVRQAPGKGLEFVAEISGSNTGSRTWYAPAVKGRATISRDNSKNTLYLQMNSLRAEDTAVYYCAKSIYGGYCAGGYSCGVGLIDAWGQGTLVTVSS VL: SYELTQDPAVSVALGQTVRITCSGGSSDYYGWFQQKPGQAPVTVIYYNNKRPSDIPDRFSGSSSGNTASLTITGAQAEDEADYYCGNADSSVGVFGSGTKVTVL | KD mutant/KD wild-type [7]: 0.8 ratio |
| 1 | 1 | 1.4 | 0.9 | 2.1 | 1 | 0.8 | 0.5 | 1.4 | 1 | 0.9 | 1 | 0.5 | 1.4 | 0.6 | 0.8 | 13.8 | 1 | 0.6 | 0.5 | 12865.17150 Fab (Fab, V domains shown, monomeric Fab fragment) VH: EVQLLESGGGLVQPGGSLRLSCAASGFDFSDHGMQWVRQAPGKGLEYVGVIDTTGRYTYYAPAVKGRATISRDNSKNTLYLQMNSLRAEDTAVYYCAKTTCVGGYLCNTVGSIDAWGQGTLVTVSS VL: SYELTQDPAVSVALGQTVRITCSGGGSSSYYGWYQQKPGQAPVTVIYDDTNRPSGIPDRFSGSSSGNTASLTITGAQAEDEADYYCGGYEGSSHAGIFGSGTKVTVL | binding result [7]: no binding (tested: 1 nM to 50 nM) |
